{
  "source": "patent US20200207869A1",
  "key": {"[1]": {"molecular_target": "VWF in the plasma of the mice (endogenous murine VWF) (murine) (UniProt Q8CIZ8)", "experiment": "sandwich ELISA of mouse plasma, anti-VWF capture, anti-FVIII detection"}, "[2]": {"molecular_target": "purified recombinant human VWF (human) (UniProt P04275)", "experiment": "BLI (Octet-QK), rhVWF immobilized, FVIII 1.4 nM, single exponential decay"}, "[3]": {"molecular_target": "purified recombinant human VWF (human) (UniProt P04275)", "experiment": "BLI (Octet-QK), rhVWF immobilized, FVIII 3.5 nM, single exponential decay"}, "[4]": {"molecular_target": "VWF in the plasma of the mice (endogenous murine VWF) (murine) (UniProt Q8CIZ8)", "experiment": "sandwich ELISA of mouse plasma, anti-VWF capture, anti-FVIII detection; reference arbitrarily set as 100%"}},
  "data": [
    {"substance": "B-domainless FVIII containing a Tyr to Phe replacement at position 1680 (FVIII-SQ/p.Y1680F) (from UniProt P00451 20-2351)", "values": [
      {"measurement": "VWF-FVIII complex relative to WT-FVIII-SQ", "setting": "[1]", "value": 8, "unit": "%"}
    ]},
    {"substance": "purified recombinant full-length factor VIII (Kogenate), P00451 20-2351", "values": [
      {"measurement": "koff", "setting": "[2]", "value": 0.003, "unit": "s⁻¹"},
      {"measurement": "koff", "setting": "[3]", "value": 0.0022, "unit": "s⁻¹"}
    ]},
    {"substance": "wild-type B-domainless FVIII (WT-FVIII-SQ) (from UniProt P00451 20-2351)", "values": [
      {"measurement": "VWF-FVIII complex relative to WT-FVIII-SQ", "setting": "[4]", "value": 100, "unit": "%"}
    ]}
  ]
}
